Target: T1, wild type human ICOSL-Fc fusion protein (human, UniProt O75144 19-256)
T1 construct: ICOS ligand (ICOSL), human, extracellular domain (ECD); secreted with the human immunoglobulin VH5-51 signal peptide; Fc dimer; also called WT ICOSL; WT ICOSL-Fc; source: Expi293F, transient expression, purified (Protein A, SEC); not shown: Fc (IgG1, lacking effector function), C-terminal, kept
T1 sequence (looked up): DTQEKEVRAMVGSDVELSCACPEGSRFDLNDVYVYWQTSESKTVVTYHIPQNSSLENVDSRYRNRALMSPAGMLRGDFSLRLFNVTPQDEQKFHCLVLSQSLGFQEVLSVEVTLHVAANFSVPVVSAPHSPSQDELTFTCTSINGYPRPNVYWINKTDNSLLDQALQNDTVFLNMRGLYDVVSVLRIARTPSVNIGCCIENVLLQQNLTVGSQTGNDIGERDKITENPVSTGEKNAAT
Assay: BLI; ForteBio Octet QKe; receptor-Fc loaded on the sensor (Protein A sensors in the methods, anti-human capture AHC sensors in the table's footnote); ICOSL-Fc proteins in four-point titrations (100, 50, 25, 12.5 nM); global 1:1 fit; both partners Fc dimers, KD includes avidity
Settings: both partners purified

Kd: 0.883 nM
B1: human recombinant ICOS-Fc fusion protein (Fc fusion, UniProt Q9Y6W8 21-140, looked up)
chain: EINGSANYEMFIFHNGGVQILCKYPDIVQQFKMQLLKGGQILCDLTKTKGSGNTVSIKSLKFCHSQLSNNSVSFFLYNLDHSHANYYFCNLSIFDPPPFKVTLTGGYLHIYESQLCCQLK
notes: Inducible Costimulator (ICOS), human, soluble Fc fusion; also called soluble ICOS-Fc; source: bought: R&D Systems
